Broadly, the Km is the substrate concentration at which the rate is half of its maximum. Broadly, the kcat/Km is the second-order rate constant that governs catalysis at low substrate concentration.

Here are results for 3 substances from paper PMC5955458, “Secreted Giardia intestinalis cysteine proteases disrupt intestinal epithelial cell junctional complexes and degrade chemokines” (Virulence, 2018).

In series [1] the test system is Cc1cc(=O)oc2cc(NC(=O)[C@H](CCCNC(=N)N)NC(=O)[C@H](CCCNC(=N)N)NC(=O)OCc3ccccc3)ccc12. The series can be described thus: purified protein. The following applies: 4 mM DTT, 10 mM EDTA.
Series [2] deals with Cc1cc(=O)oc2cc(NC(=O)[C@H](CCCNC(=N)N)NC(=O)[C@H](Cc3ccccc3)NC(=O)OCc3ccccc3)ccc12. The series can be described thus: purified protein. The conditions noted are these: 4 mM DTT, 10 mM EDTA.
Where [3] appears, read: pH 5.5, 37°C, sodium acetate buffer.
The mark [4] stands for this setting: pH 5.5, 37°C, sodium acetate buffer, pre-activated 120 min at pH 5.5, pH 5.5.
The mark [5] stands for this setting: pH 6, 37°C, sodium phosphate buffer, pre-activated 120 min at pH 5.5.
Where [6] appears, read: pH 6, 37°C, sodium phosphate buffer.

CP14019 (Giardia lamblia ATCC 50803): in series [1] (setting [3]), the Km stood at 5.11 ± 1.11 µM and the kcat/Km lay within 5410 to 9840 M⁻¹ s⁻¹. For the same substance, in series [2] (setting [3]), the Michaelis constant (Km) amounted to 3.17 ± 0.34 µM and the kcat/Km lay within 179000 to 237000 M⁻¹ s⁻¹.

Take CP16160 (Giardia lamblia ATCC 50803): in series [1] (setting [4]), the Km turned out to be 5.60 ± 1.00 µM and the catalytic efficiency (kcat/Km) lay within 58600 to 96100 M⁻¹ s⁻¹. For the same substance, in series [2] (setting [5]), the Km came out at 9.40 ± 1.46 µM and the kcat/Km lay within 43000 to 67700 M⁻¹ s⁻¹.

As to CP16779 (Giardia lamblia ATCC 50803), the values for the Km in series [1] (setting [6]) and in series [2] (setting [6]) were 5.40 ± 0.75 µM and 0.96 ± 0.24 µM, respectively. Moreover, the values for the kcat/Km in series [1] (setting [6]) and in series [2] (setting [6]) were 10500 to 14800 M⁻¹ s⁻¹ and 1.02e+06 to 2.06e+06 M⁻¹ s⁻¹, respectively.
